Measured values reported in US20210284750A1, “Immunoconjugate Synthesis Method” (priority 2017, published 2021).

Assays:
[1] = test system: Human antigen presenting cells (APCs); assay: APC-tumor co-culture: myeloid activation by flow cytometry; type: cell-based; conditions: 18 hours; for myeloid activation: APC-tumor co-culture
Description: (§1) Isolation of Human Antigen Presenting Cells. Human antigen presenting cells (APCs) were negatively selected from human peripheral blood mononuclear cells obtained from healthy blood donors (Stanford Blood Center) by density gradient centrifugation using a RosetteSep Human Monocyte Enrichment Cocktail (Stem Cell Technologies) containing monoclonal antibodies against CD14, CD16, CD40, CD86, CD123, and HLA-DR. Immature APCs were subsequently purified to >97% purity via negative selection using an EasySep Human Monocyte Enrichment Kit without CD16 depletion containing monoclonal antibodies against CD14, CD16, CD40, CD86, CD123, and HLA-DR.
(§2) Preparation of Tumor Cells. Tumor cells were resuspended in PBS with 0.1% fetal bovine serum (FBS) at 1 to 10×10^6 cells/mL. Cells were subsequently incubated with 2 μM CFSE to yield a final concentration of 1 μM. The reaction was ended after 2 minutes via the addition of 10 mL complete medium with 10% FBS and washed once with complete medium. Cells were either fixed in 2% paraformaldehyde and washed three times with PBS or left unfixed prior to freezing the cells in 10% DMSO, 20% FBS and 70% medium.
(§3) APC-Tumor Co-cultures. […] Cells and cell-free supernatants were analyzed after 18 hours via flow cytometry or ELISA.

[2] = test system: Human antigen presenting cells (APCs); assay: APC-tumor co-culture: cytokine secretion in cell-free supernatants (ELISA); type: cell-based; conditions: 18 hours
Description: as §1, §2, §3

[3] = APCs with CFSE-labeled tumor cells, various concentrations, flow cytometry

B1: CD20 (protein, UniProt P11836 1-297, looked up)
B-lymphocyte antigen CD20: MTTPRNSVNGTFPAEPMKGPIAMQSGPKPLFRRMSSLVGPTQSFFMRESKTLGAVQIMNGLFHIALGGLLMIPAGIYAPICVTVWYPLWGGIMYIISGSLLAATEKNSRKCLVKGKMIMNSLSLFAAISGMILSIMDILNIKISHFLKMESLNFIRAHTPYINIYNCEPANPSEKNSPSTQYCYSIQSLFLGILSVMLIFAFFQELVIAGIVENEWKRTCSRPKSNIVLLSAEEKKEQTIEIKEEVVGLTETSSQPKNEEDIEIIPIQEEEEEETETNFPEPPQDQESSPIENDSSP
[1]
  myeloid activation: does not
[1]; listed as unconjugated CD20 antibody
  myeloid activation: do not
[1]; [3]
  myeloid activation as indicated by CD14 downregulation: does not
  myeloid activation as indicated by CD16 downregulation: does not
  myeloid activation as indicated by CD40 upregulation: does not
  myeloid activation as indicated by CD86 upregulation: does not
  myeloid activation as indicated by CD123 upregulation: does not
  myeloid activation as indicated by HLA-DR upregulation: does not
[2]
  cytokine secretion: do not
